This is an account of results in patent US20230045262A1 (Hoffmann-La Roche, published 2023).

The target in test [1] is T1, human 4-1BB on cells (activated human T cells; HeLa-hu4-1BB-NFκB-luc clone 26; Jurkat-hu4-1BB-NFκB-luc2) (human, UniProt Q07011 24-255). The test is described as follows: cell-based or functional assay.
The target in test [2] is T2, human FAP on cells (WM-266-4; NIH/3T3-huFAP clone 19) (human, UniProt Q12884 1-760).
T2 construct: transfected in NIH/3T3-huFAP clone 19
The test is described as follows: flow cytometry on WM-266-4 and NIH/3T3-huFAP clone 19 cells. In general terms: A flow cytometer gives signals particle by particle.

Test [3] addresses T3, hu4-1BB-SNAP fusion on Hek293 EBNA cells (human, UniProt Q07011 24-255, labeled with the FRET donor Terbium).
T3 construct: also called hu 4-1BB (TagLite); not shown: SNAP tag
The test is described as follows: TagLite FRET competition on hu4-1BB-SNAP cells; competitor 0.6 nM d2-labelled 20H4.9 IgG; 4 h.

For test [4], the target named is T3, hu4-1BB-SNAP fusion on Hek293 EBNA cells. The description is as above. This is another data set of the same source.
Test [5] deals with T1, human 4-1BB on cells (activated human T …). The test is described as follows: cell-based or functional assay. The source holds these as a separate data set.
Test [6] shares this target. The test is described as follows: flow cytometry on activated human CD4+ T cells, PE anti-human Fc secondary.
The target is the same in test [7]. The test is described as follows: flow cytometry on activated human CD8+ T cells, PE anti-human Fc secondary.
Test [8] shares this target. The test is described as follows: cell-based or functional assay. This is another data set of the same source.

Where two headings read alike, the source gives them in different places.

B1: 4-1BB (20H4.9) huIgG1 P329G LALA (antibody, V domains shown)
VH: QVQLQQWGAGLLKPSETLSLTCAVYGGSFSGYYWSWIRQSPEKGLEWIGEINHGGYVTYNPSLESRVTISVDTSKNQFSLKLSSVTAADTAVYYCARDYGPGNYDWYFDLWGRGTLVTVSS
VL: EIVLTQSPATLSLSPGERATLSCRASQSVSSYLAWYQQKPGQAPRLLIYDASNRATGIPARFSGSGSGTDFTLTISSLEPEDFAVYYCQQRSNWPPALTFGGGTKVEIK
notes: rest is human IgG1 with P329G, L234A, L235A; In the FRET assay the same IgG, labelled with d2, is the tracer; also called 20H4.9 IgG; anti-4-1BB (20H4.9) huIgG1 P329G LALA
The EC50 is the midpoint of the concentration-response curve. On to B1, for which the “EC50 of activation of the NFκB signaling pathway (luciferase, HeLa-hu4-1BB-NFκB-luc), no FAP+ cells” value in test [1] is 1.07 nM. The “EC50 of activation of the NFκB signaling pathway (luciferase, HeLa-hu4-1BB-NFκB-luc), with 3T3-huFAP cells” value in test [1] amounted to 2.17 nM. The “EC50 of activation of the NFκB signaling pathway (luciferase, HeLa-hu4-1BB-NFκB-luc), with WM-266-4 cells” value in test [1] was 0.64 nM. The binding result in test [2] is given as “no binding”. In addition, the EC50 in test [3] came out at 1.5 nM; in test [4] it was 1.5 nM; in test [6], 0.1 nM; in test [7], 0.1 nM. Besides, the “EC50 interval” value in test [3] was 0.9 to 2.4 nM; in test [4], 0.9 to 2.5 nM. In test [5], the “EC50 of Jurkat-hu4-1BB-NFκB-luc2 reporter cell line activation curves in the presence of CEA-expressing MKN45 tumor cells” value was 0.02 nM. Moreover, the “EC50 of human PBMC activation curves, % CD25+ CD4 (with NIH/3T3-huFAP cells and anti-CD3)” value in test [8] came out at 0.1 nM.
